Results taken from patent US6953661 (WESTMEAD HOSPITAL, dated 2005).

Molecular target: T1, His-KHCstalk (human uKHC amino acid residues 555-772, tagged at the N-terminus with an oligohistidine … (human, UniProt P33176 555-772))
T1 construct: range 555-772; also the antigen used to raise the chicken anti-uKHC; also called HisKHC555-772; His-KHC fragment; not shown: N-terminal oligohistidine (His) tag
T1 sequence (looked up): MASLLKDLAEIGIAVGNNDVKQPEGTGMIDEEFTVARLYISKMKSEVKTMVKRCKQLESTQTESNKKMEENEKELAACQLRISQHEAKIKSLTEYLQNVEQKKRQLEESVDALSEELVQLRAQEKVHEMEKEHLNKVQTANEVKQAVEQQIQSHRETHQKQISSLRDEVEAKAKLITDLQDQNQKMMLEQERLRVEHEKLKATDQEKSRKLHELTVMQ
Assay: pull-down on nickel-activated beads, immunoblot

B1: untagged US11 (recombinant HSV1 US11 with five additional amino acids MGRLE at the N-terminus, expressed in Escherichia coli) (other)
chain: MGRLEMSQTQPPAPVGPGDPDVYLKGVPSAGMHPRGVHAPRGHPRMISGPPQRGDNDQAAGQCGDSGLLRVGADTTISKPSEAVRPPTIPRTPRVPREPRVPRPPREPREPRVPRAPRDPRVPRDPRDPRQPRSPREPRSPREPRSPREPRTPRTPREPRTARGSV
notes: also called untagged US11 construct
B1: no binding.
